The results in this text go back to patent publication US20180339059A1 (DINGFU BIOTARGET, published 2018).

Assay [1] deals with T1, hOX40-muFc (human; mouse, UniProt P43489 29-216).
T1 construct: range 1-216; Expressed in HEK293, purified on Protein A; also called recombinant human OX40; not shown: mouse IgG1-Fc (muFc) domain, residue 98 to residue 324 of P01868
T1 sequence (looked up): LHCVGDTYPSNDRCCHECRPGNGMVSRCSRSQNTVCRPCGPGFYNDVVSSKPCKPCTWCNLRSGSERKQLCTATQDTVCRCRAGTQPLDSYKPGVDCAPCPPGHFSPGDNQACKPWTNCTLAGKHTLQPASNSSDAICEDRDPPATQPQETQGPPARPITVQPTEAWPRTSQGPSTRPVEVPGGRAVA
As to the kind of experiment: ELISA, hOX40-muFc coated at 2 µg/ml, goat anti-human IgG-HRP; column C of the drawn 4-P fit table y=(A-D)/(1+(x/C)^B)+D; the axis prints no unit, ng/ml is from paragraph 210. As to the method:
(§1) hOX40-muFc was diluted to 2 μg/ml with coating buffer (50 mM Na₂CO₃, NaHCO₃ pH 9.6), 100 μL/well, 4° C. overnight. After washing, blocking was performed using 3% BSA-PBS for 1 h at 37° C. The anti-hOX40 antibodies were diluted respectively from 2000 ng/ml and was diluted 2-fold in a total of 11 concentrations, with the diluent (1% BSA-PBS) as a control, and incubated at 37° C. for 2 h. Goat anti-human IgG-HRP conjugated was added and incubated for 1 h at 37° C. Soluble one-component TMB substrate developer solution is added, and the developing was performed in dark at room temperature for 5-10 min. 2N H₂SO₄ 50 μL/well was added to terminate the color development reaction. The OD of the obtained solution was determined at 450 nm-650 nm on MD SpectraMax Plus 384 microplate reader and SoftMaxPro v5.4 was used for processing data, making graphs and analysis. […] It can be seen from FIG. 5 and FIG. 6 that all the above variants of anti-OX40 21 # mAb can bind to OX40 and the affinity of the in vitro affinity-matured anti-OX40 21 # VHnew-L80 mAb and anti-OX40 21#H96-L80 mAb increased approximately two times compared to anti-OX40 21# mAb.
For orientation: In an ELISA, binding on a coated surface is turned into a signal by an enzyme label.

The target of assay [2] is T2, hCD27-EGFP on HEK293 cells (human, UniProt P26842 20-260).
T2 construct: pcDNA4-hCD27-EGFP transfected into HEK293; not shown: EGFP, C5MKY7
T2 sequence (looked up): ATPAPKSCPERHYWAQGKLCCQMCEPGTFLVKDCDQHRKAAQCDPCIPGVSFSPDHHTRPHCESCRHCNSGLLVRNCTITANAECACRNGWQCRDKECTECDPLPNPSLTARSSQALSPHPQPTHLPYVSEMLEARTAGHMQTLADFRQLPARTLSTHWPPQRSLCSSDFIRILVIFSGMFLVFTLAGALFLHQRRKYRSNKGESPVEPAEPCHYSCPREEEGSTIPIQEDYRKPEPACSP
The assay is described as follows: flow cytometry on HEK293 cells expressing hCD27-EGFP, anti-hIg-PE. The method, then: (§2) HEK293 cells expressing hOX40-EGFP, hCD137-EGFP and hCD27-EGFP obtained in Embodiment 1 were resuspended in 0.5% PBS-BSA Buffer and anti-hOX40 mAb protein was added and the mixture was incubated on ice for 20 min. After washing, secondary antibody anti-hlg-PE (eBioscience) was added, and the mixture was incubated on ice for 20 min. After washing, the cells were resuspended in 500 μl 0.5% PBS-BSA Buffer and detected by flow cytometry.

The target in assay [3] is T3, hCD137-EGFP on HEK293 cells (human, UniProt Q07011 24-255).
T3 construct: pcDNA4-hCD137-EGFP transfected into HEK293; not shown: EGFP, C5MKY7
T3 sequence (Q07011 24-255): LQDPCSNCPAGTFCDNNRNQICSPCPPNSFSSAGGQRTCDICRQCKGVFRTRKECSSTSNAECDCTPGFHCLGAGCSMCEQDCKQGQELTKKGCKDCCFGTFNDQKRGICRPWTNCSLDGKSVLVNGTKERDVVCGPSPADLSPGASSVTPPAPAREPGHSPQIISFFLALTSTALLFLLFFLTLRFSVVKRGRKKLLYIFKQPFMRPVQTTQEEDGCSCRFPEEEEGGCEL
As to the kind of experiment: flow cytometry on HEK293 cells expressing hCD137-EGFP, anti-hIg-PE. As to the method:
as §2
A general note: Flow cytometry measures light scatter and fluorescence of single cells or particles in a stream.

The target in assay [4] is T1, hOX40-muFc. As to the kind of experiment: SPR, BIAcore X100; antibody captured by anti-human Fc on CM5 chip, OX40-muFc as analyte, 1:1 model. As to the method: The binding kinetics of anti-hOX40 antibody to recombinant human OX40 was measured by surface plasmon resonance (SRP) method using a BIAcore X100 instrument. Anti-human Fc antibody (no cross-identification against the mouse Fc) was conjugated on CM5 chip, the test antibody was diluted to 5 nM with running buffer and captured as a ligand by the anti-human Fc antibody on the CM5 chip. […] The injection time is 180 s, the dissociation time is 1800 s and the regeneration time is 60 s. The running buffer is HBS-EP+, and the regeneration buffer is 10 mM glycine-HCl (pH 2.0). The association rate (kₒₙ) and dissociation rate (koff) were calculated using a simple one-to-one Languir binding model (BIAcore Evaluation Software version 3.2). The equilibrium dissociation constant (kD) is calculated as the ratio koff/kₒₙ. It can be seen from Table 3 that the affinity of the affinity-matured anti-OX40 21 # H96-L80 mAb is increased approximately two times.
In general terms: SPR reads the build-up and loss of mass on a sensor chip optically.

For assay [5], the target named is T1, hOX40-muFc. The assay is described as follows: ELISA, hOX40-muFc coated at 2 µg/ml, goat anti-human IgG-HRP; column C of the drawn 4-P fit table y=(A-D)/(1+(x/C)^B)+D; the axis prints no unit, ng/ml is from paragraph 210. As to the method: as §1
This is another data set of the same source.

Assay [6] deals with T1, hOX40-muFc. The description is as above. The method, then:
as §1
The source holds these as a separate data set.

Read-outs that look alike come from different tables or passages of the source.

B1: O3 scFv (scFv)
scFv: QVQLQQWGAGLLKPSETLSLTCGFNGEYFTDYFWTWVRQPPGEALEWLALIYWDDDERYSPSLKNRLIITKDISKNQVVLTMTHMEPADTGTYYCARWGGSLMNAFDVWGPGTMVTVSSGGGGSGGGGSGGGGSQSALIQPASVSGSPGQSITISCTGTSSDVGGYNYVSWYQRHPGKAPRLMIYDVTKRPSGVSNRFSGSKSGNTASLTISGLQAEDEADYYCSSYTSSSIAVFGGGTQLTVL
notes: Purified as scFv fused with human IgG1-Fc, expressed in HEK293; also called anti-hOX40 scFv O3; not shown: human IgG1-Fc (hFc) domain, residues 104-330 of P01857
With B1, the EC50 (commonly the concentration needed to bring the measured effect to its halfway point) in assay [1] came out at 0.309 µg/mL.

B2: O19 mAb (antibody, IgG4, V domains shown)
VH: QVQLVESEGGLVQPGGSLRLSCAASRFTFSNYWMSWVRQAPGKGLEWVANIKQDGSEKYYMDSVKGRFTISRDNAKNSLFLQMNTLRAEDTAMYYCTRVSFGVPTYDDFWRSYATPAWYFDFWGRGTLVTVSS
VL: QSALIQPASVSGSPGQSITISCTGISSDDGYYKYVSWYQQYPGKAPKLMIYDVSKRPSGISFRFSGSKSGNTASLTISGLQAEDEADYYCSSYTSNMTPYVFGTGTKVTVL
notes: IgG4, lambda; expressed in HEK293; not shown: human immunoglobulin gamma4 (IgG4) constant region, P01861; human immunoglobulin lambda light chain constant region, A0M8Q6
Take B2: the binding result in assay [2] and in assay [3] was “no binding” each time.

B3: O3 mAb (antibody, IgG4, V domains shown)
VH: QVQLQQWGAGLLKPSETLSLTCGFNGEYFTDYFWTWVRQPPGEALEWLALIYWDDDERYSPSLKNRLIITKDISKNQVVLTMTHMEPADTGTYYCARWGGSLMNAFDVWGPGTMVTVSS
VL: QSALIQPASVSGSPGQSITISCTGTSSDVGGYNYVSWYQRHPGKAPRLMIYDVTKRPSGVSNRFSGSKSGNTASLTISGLQAEDEADYYCSSYTSSSIAVFGGGTQLTVL
notes: IgG4, lambda; expressed in HEK293; also called 03 mAb; not shown: human immunoglobulin gamma4 (IgG4) constant region, P01861; human immunoglobulin lambda light chain constant region, A0M8Q6
For the molecule B3, in assay [4], binding was characterised by a dissociation constant (Kd) of 1.38 nM; the koff (commonly the first-order rate constant of dissociation) turned out to be 0.000391 s⁻¹; the kon (in general, the rate constant with which the complex forms) was 284000 M⁻¹ s⁻¹. For the same molecule, the EC50 in assay [1] turned out to be 0.0139 µg/mL.

B4: anti-OX40 21#H96 mAb (antibody, IgG4, V domains shown)
VH: QVQLQQSGPGLVKPSQTLSLTCAISGDSVSSNSVSWDWIRQSPSRGLEWLGRTYYRSKWYNEYAVSVESRITINPDTSKNQFSLQLNSVTPEDTAIYFCVRNDYFFDLWGRGTLVTVSS
VL: EIVLTQSPATLSLSPGERATLSCRASQSVSSYLAWYQQKPGQAPRLLIYDASDRATGIPARFSGSGSGTDFTLTISSLEPEDFAVYYCQLRSNWPPGYTFGQGTKVEIK
notes: Formatted as IgG according to Embodiment 3 (IgG4); also called H96 heavy chain mutant; not shown: human immunoglobulin gamma4 (IgG4) constant region, P01861; human immunoglobulin kappa light chain constant region, P01834
B4 returned an EC50 in assay [5] of 0.046 µg/mL.

B5: O21 mAb (antibody, IgG4, V domains shown)
VH: QVQLQQSGPGLVKPSQTLSLTCAISGDSVSSNSVSWDWIRQSPSRGLEWLGRTYYRSKWYNEYAVSVESRITINPDTSKNQFSLQLNSVTPEDTAIYFCVRNNYFFDLWGRGTLVTVSS
VL: EIVLTQSPATLSLSPGERATLSCRASQSVSSYLAWYQQKPGQAPRLLIYDASDRATGIPARFSGSGSGTDFTLTISSLEPEDFAVYYCQLRSNWPPGYTFGQGTKVEIK
notes: also called 021 mAb; anti-OX40 21# mAb; not shown: human immunoglobulin gamma4 (IgG4) constant region, P01861; human immunoglobulin kappa light chain constant region, P01834
As to B5, the binding result in assay [2] and in assay [3] was “no binding” throughout. In assay [4], binding was put at a Kd of 14.5 nM. The koff in assay [4] was found to be 0.000608 s⁻¹. Also, the kon in assay [4] worked out at 41800 M⁻¹ s⁻¹. Moreover, the concentration giving a half-maximal response (EC50) in assay [1] came to 0.0139 µg/mL; in assay [5], 0.0758 µg/mL; in assay [6], 0.0298 µg/mL.
